Consider two molecules from US20160122742A1 (published 2016).

Data set [1] has as its target T1, human ORC1 with C-terminal Flag-HA tag (human, UniProt Q13415 1-861).
T1 construct: Stably expressed in HeLa S3 cells; also called ORC1 FLAG-HA; FLAG-HA tagged ORC1; not shown: in-frame C-terminal Flag-HA tag of pOZ-FH-C
T1 sequence: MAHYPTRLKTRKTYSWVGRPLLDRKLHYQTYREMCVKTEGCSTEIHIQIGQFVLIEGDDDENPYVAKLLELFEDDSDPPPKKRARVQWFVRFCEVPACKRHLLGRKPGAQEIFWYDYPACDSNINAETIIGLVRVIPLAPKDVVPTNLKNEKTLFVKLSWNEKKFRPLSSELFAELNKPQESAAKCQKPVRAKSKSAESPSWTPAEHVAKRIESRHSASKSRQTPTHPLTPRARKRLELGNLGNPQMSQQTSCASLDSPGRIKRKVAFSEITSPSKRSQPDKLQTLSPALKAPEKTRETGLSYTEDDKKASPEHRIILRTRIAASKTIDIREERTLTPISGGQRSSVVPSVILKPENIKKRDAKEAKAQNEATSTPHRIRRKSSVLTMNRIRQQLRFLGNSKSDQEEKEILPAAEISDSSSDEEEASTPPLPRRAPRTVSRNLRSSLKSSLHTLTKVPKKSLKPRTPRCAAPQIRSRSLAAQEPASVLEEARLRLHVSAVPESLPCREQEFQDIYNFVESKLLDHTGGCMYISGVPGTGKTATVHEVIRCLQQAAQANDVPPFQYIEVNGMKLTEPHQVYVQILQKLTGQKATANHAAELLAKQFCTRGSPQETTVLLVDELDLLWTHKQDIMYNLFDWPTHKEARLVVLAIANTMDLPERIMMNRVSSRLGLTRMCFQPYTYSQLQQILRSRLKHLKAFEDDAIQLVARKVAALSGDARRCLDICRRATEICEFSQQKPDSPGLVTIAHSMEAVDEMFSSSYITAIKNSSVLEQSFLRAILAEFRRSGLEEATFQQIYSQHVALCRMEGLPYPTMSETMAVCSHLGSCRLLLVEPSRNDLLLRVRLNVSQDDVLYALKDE
Put plainly: TAP-TAG (tandem Flag/HA immunoprecipitation from HeLa S3 nuclear extract), silver staining and mass spectrometry. As to the method:
The beads were washed twice with 1 mL of HA-IP Buffer (150 mM KCl; 20 mM Tris pH 7.5 0.05% NP40; 0.1% Tween; 10% Glycerol; 5 mM MgCl₂; 1 mM DTT and 10 mM PMSF). After the last centrifugation, beads were resuspended in HA-IP Buffer (1 vol of Beads). Extracts were incubated with Flag beads for 4 h with agitation at 4 C. Beads were pelleted (3 min at 3000 rpm 4° C.). Beads were washed 5 times with HA IP Buffer: Beads are pelleted (3K 3 min 4° C.) and the supernatant discarded. Complexes were eluted from the beads by incubating in 3 beads volume of HA IP Buffer supplemented with Flag peptide (200 μg/mL, Sigma) for 1 hour at 4 C with agitation. The supernatant was kept on ice and a second elution was conducted. The eluates were pooled and subjected to an anti-HA immunoprecipitation. Before, anti-HA coupled agarose beads (SantaCruz Biotechnology) were washed with glycine buffer as described above. 10 μL of beads was used per IP. Flag eluates were incubated with anti-HA beads for 2 hours at 4 C with agitation. Beads were pelleted (3 min at 3000 rpm 4° C.). Beads were washed 5 times with HA IP Buffer: Beads are pelleted (3K 3 min 4° C.) and the supernatant discarded. Complexes were eluted from the beads by incubating in 3 beads volume of HA IP Buffer supplemented with HA peptide (400 μg/mL, Roche) for 1 hour at 4 C with agitation. The supernatant was keep on ice and a second elution was conducted. […]

For a further data set, the target named is T2, Flag tagged ORC3, Q9UBD5.
T2 chain: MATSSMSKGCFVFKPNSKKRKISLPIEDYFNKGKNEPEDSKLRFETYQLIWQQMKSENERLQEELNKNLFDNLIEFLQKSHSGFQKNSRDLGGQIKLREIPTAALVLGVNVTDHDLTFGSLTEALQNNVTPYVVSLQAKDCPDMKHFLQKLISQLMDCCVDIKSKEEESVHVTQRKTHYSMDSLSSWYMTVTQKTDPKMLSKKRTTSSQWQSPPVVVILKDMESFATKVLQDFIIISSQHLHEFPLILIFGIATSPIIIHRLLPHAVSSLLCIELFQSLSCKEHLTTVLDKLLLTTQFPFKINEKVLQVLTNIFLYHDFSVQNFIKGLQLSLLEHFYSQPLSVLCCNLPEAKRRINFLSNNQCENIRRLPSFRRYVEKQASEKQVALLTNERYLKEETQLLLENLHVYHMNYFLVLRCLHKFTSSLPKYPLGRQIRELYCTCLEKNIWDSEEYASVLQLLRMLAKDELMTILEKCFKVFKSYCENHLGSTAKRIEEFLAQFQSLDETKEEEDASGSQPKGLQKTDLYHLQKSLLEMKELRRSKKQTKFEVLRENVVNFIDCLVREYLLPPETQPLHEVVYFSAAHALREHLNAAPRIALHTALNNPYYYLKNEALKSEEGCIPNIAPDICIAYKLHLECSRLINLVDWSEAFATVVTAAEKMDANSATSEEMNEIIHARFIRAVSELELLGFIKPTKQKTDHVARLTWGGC

Data set [2] has as its target T3, Flag tagged ORC1 (N-terminal Flag, pCS2-Flag).
T3 chain: T1 sequence

The next data set has as its target T4, Flag tagged ORC5, O43913.
T4 chain: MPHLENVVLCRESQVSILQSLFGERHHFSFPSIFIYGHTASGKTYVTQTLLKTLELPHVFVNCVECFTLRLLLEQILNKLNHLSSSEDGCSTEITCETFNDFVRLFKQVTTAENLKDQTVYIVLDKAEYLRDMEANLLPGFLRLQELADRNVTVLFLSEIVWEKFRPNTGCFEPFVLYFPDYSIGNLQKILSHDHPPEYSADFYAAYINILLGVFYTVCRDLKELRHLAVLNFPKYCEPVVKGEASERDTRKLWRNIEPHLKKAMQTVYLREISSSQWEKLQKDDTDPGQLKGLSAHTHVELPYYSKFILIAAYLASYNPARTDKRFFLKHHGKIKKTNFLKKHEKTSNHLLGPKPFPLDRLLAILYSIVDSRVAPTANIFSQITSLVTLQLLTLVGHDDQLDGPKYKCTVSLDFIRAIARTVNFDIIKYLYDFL

Data set [3] concerns the target T5, Flag tagged ORC1 (N-terminal Flag, pCS2-Flag) (human, UniProt Q13415 1-861).
T5 construct: Transiently expressed in U2OS cells; also called Flag-ORC1
T5 sequence: T1 sequence
Kind of data set: anti-Flag co-immunoprecipitation from U2OS cells, western blot with anti-Myc. The method, then: For cell lysis, immunoprecipitation and western blotting were performed following standard methods. Briefly, cells were lysed in TK300 lysis buffer (20 mM Tris-HCl pH 7.9; 300 mM KCl, 5 mM MgCl2, 10% glycerol; 0.5% NP-40 plus protease inhibitors cocktail) on ice for 30 min. The protein concentration of the clarified lysates was estimated using the BCA method (Pierce). For immunoprecipitation experiments, equivalent amounts of protein samples were incubated at 4° C. with anti-Flag coupled agarose beads (Sigma Aldrich) for 4 h. After extensive washing with TK300 lysis buffer, bound proteins were eluted in boiling Laemmli buffer. Samples were runs on pre-cast gradient gel (NuPage Novex, Invitrogen and Mini-PROTEAN TGX, Biorad) and transferred to nitrocellulose membrane.
U20S cells were transiently transfected with plasmids coding for Myc-tagged WT Obi1 or mutated Obi1, and also co-transfected with plasmids coding for Flag-ORC1. 48 hours post-transfection, cells were lyzed and the soluble fraction was subjected to an anti-Flag immunoprecipitation (IP:Flag—FIG. 24B). Ectopic proteins were detected by western blotting. Under these conditions, specific Obi1/ORC1 complex is detected in the immunoprecipitate. In contrast, no association is observed between ORC1 and the mutated Obi1 protein (FIG. 24B).

B1: ORC Ubiquitin-ligase 1 (OBI1), human, endogenous protein of the cells (enzyme)
chain: MAQTVQNVTLSLTLPITCHICLGKVRQPVICINNHVFCSICIDLWLKNNSQCPACRVPITPENPCKEIIGGTSESEPMLSHTVRKHLRKTRLELLHKEYEDEIDCLQKEVEELKSKNLSLESQIKTILDPLTLVQGNQNEDKHLVTDNPSKINPETVAEWKKKLRTANEIYEKVKDDVDKLKEANKKLKLENGGLVRENLRLKAEVDNRSPQKFGRFAVAALQSKVEQYERETNRLKKALERSDKYIEELESQVAQLKNSSEEKEAMNSICQTALSADGKGSKGSEEDVVSKNQGDSARKQPGSSTSSSSHLAKPSSSRLCDTSSARQESTSKADLNCSKNKDLYQEQVEVMLDVTDTSMDTYLEREWGNKPSDCVPYKDEELYDLPAPCTPLSLSCLQLSTPENRESSVVQAGGSKKHSNHLRKLVFDDFCDSSNVSNKDSSEDDISRSENEKKSECFSSPKTGFWDCCSTSYAQNLDFESSEGNTIANSVGEISSKLSEKSGLCLSKRLNSIRSFEMNRTRTSSEASMDAAYLDKISELDSMMSESDNSKSPCNNGFKSLDLDGLSKSSQGSEFLEEPDKLEEKTELNLSKGSLTNDQLENGSEWKPTSFFLLSPSDQEMNEDFSLHSSSCPVTNEIKPPSCLFQTEFSQGILLSSSHRLFEDQRFGSSLFKMSSEMHSLHNHLQSPWSTSFVPEKRNKNVNQSTKRKIQSSLSSASPSKATKS
notes: Untagged endogenous Obi1 of HeLa S3 or U2OS cells, co-purified with tagged baits or acting on transfected ORC subunits; also called RNF219; Obi1/RFN219
Regarding B1, in data set [1], the binding result is listed as “binds”. Moreover, in the data set with Flag tagged ORC3, Q9UBD5, the “poly-ubiquitination of Flag ORC3 after siRNA knockdown of Obi1” value is “cells that does not express Obi1 are not able to poly-ubiquitinate either ORC3 or ORC5”; the “ubiquitination of Flag tagged ORC subunits (HA-ubiquitin adducts after anti-Flag IP)” value is “OC1, ORC3 and ORC5 are ubiquitinated in presence of Obi1, and in particular that ORC3 and ORC5 show strong polyubiquitylation”. Moreover, the “ubiquitination of Flag tagged ORC subunits (HA-ubiquitin adducts after anti-Flag IP)” value in data set [2] is “OC1, ORC3 and ORC5 are ubiquitinated in presence of Obi1”. For the same molecule, in the data set with Flag tagged ORC5, O43913, the “poly-ubiquitination of Flag ORC5 after siRNA knockdown of Obi1” value is listed as “cells that does not express Obi1 are not able to poly-ubiquitinate either ORC3 or ORC5”; the “ubiquitination of Flag tagged ORC subunits (HA-ubiquitin adducts after anti-Flag IP)” value was “OC1, ORC3 and ORC5 are ubiquitinated in presence of Obi1, and in particular that ORC3 and ORC5 show strong polyubiquitylation”.

B2: Myc-tagged mutated Obi1 (truncated Obi1 protein of the Meier-Gorlin patient) (other)
chain: MAQTVQNVTLSLTLPITCHICLGKVRQPVICINNHVFCSICIDLWLKNNSQCPACRVPITPENPCKEIIGGTSESEPMLSHTVRKHLRKTRLELLHKEYEDEIDCLQKEVEELKSKNLSLESQIKTILDPLTLVQGNQNEDKHLVTDNPSKINPETVAEWKKKLRTANEIYEKVKDDVDKLKEANKKLKLENGGLVRENLRLKAEVDNRSPQKFGRFAVAALQSKVEQYERETNRLKKALERSDKYIEELESQVAQLKNSSEEKEAMNSICQTALSADGKGSKGSEEDVVSKNQGDSARKQPGSSTSSSSHLAKPSSSRLCDTSSARQESTSKADLNCSKNKDLYQEQVEVMLDVTDTSMDTYLEREWGNKPSDCVPYKDEELYDLPAPCTPLSLSCLQLSTPENRESSVVQAGGSKKHSNHLRKLVFDDFCDSSNVSNKDSSEDDISRSENEKKSVFFFPKDRILGLLFHKLCPKLRF
notes: also called C.1370_1371delAA,P.GLU457VALFSX24; not shown: Myc tag
Regarding B2, in data set [3], the binding result was “no binding”.
